Test results from publication PMC2783380.

Biological target: APOBEC3G (human), Q9HC16
Assay: AUC
Settings: remark: other sources report otherwise

B1: APOBEC3G, Q9HC16 1-384 (enzyme)
chain: MKPHFRNTVERMYRDTFSYNFYNRPILSRRNTVWLCYEVKTKGPSRPPLDAKIFRGQVYSELKYHPEMRFFHWFSKWRKLHRDQEYEVTWYISWSPCTKCTRDMATFLAEDPKVTLTIFVARLYYFWDPDYQEALRSLCQKRDGPRATMKIMNYDEFQHCWSKFVYSQRELFEPWNNLPKYYILLHIMLGEILRHSMDPPTFTFNFNNEPWVRGRHETYLCYEVERMHNDTWVLLNQRRGFLCNQAPHKHGFLEGRHAELCFLDVIPFWKLDLDQDYRVTCFTSWSPCFSCAQEMAKFISKNKHVSLCIFTARIYDDQGRCQEGLRTLAEAGAKISIMTYSEFKHCWDTFVDHQGCPFQPWDGLDEHSQDLSGRLRAILQNQEN
Work on B1 yielded a stoichiometry N of 4.
